Laboratory results as given in paper PMC11216177.

Target: H4K20R recombinant nucleosomes containing FLAG-tagged H2A and H4K20R
Experiment: pull-down

fold binding to H4K20R nucleosomes relative to WT nucleosomes [fold]	fold binding to H4K20R nucleosomes compared with WT nucleosomes [fold]	Binder
14.5		Set8 (enzyme) MIMVRRRQRPAKEAASSSSGGASSGSGIPVDQALPLNVAGNLLEDQYFASPKRKDCRLMKVTQNGQLPEATMMAHNKDNKAGRTIGVPLATRSQTRTIENFFKANAAAKDSQKTIHTEEQLNLGNQELKLDDEELNGQIKLDDEVLKLADKQINENLPFADEVDAKAEQKLMDEELQQVVEELLFDGSSRASSNSPFYQHDMDVMQEIQQTPEIPHIKKVTEPLEGLGSLADFQTHRSALRDSHSSTHSSSTDNIFLQEPVLTLDIDRTPTKASSIKINRSFELAGAVFSSPPSVLNACLNGRFNQIVSLNGQKEALDLPHFDLDQHDSSSCDSGVACGLTANTESPAGQPRRRKPATPHRILCPSPIKTALKVTGGICKVGSADPLSPRKSPRKLPTTTAAVAACKSRRRLNQPKPQAPYQPQLQKPPSQQQQQQQDDIVVVLDDDDDEGDDEDDVRALIKAAEERENQNKAPATANSNKAGMKTMLKPAPVKSKTKSKGPTKGQPPLPLAATNGNREMTDFFPVRRSVRKTKTAVKEEWMRGLEQAVLEERCDGLQVRHFMGKGRGVVADRPFKRNEFVVEYVGDLISIGEAAEREKRYALDENAGCYMYYFKHKSQQYCIDATVDTGKLGRLINHSRAGNLMTKVVLIKQRPHLVLLAKDDIEPGEELTYDYGDRSKESLLHHPWLAF
	1.8	GFP-L(3)mbt (natural protein) MMALKMLYRGPSSRLENLIEKIQATKEITNNDMYSTHTSSSYSPSISDGTMTPNSHHLIGAPTAAGQEDHPTEGKINGGADGEDLPKPKRLPHFHHHHHHHYHHQQALKIANKLRKINKEAKMGATAGGGATGAASKFDKLTGEGIKSRGDGSYQCQFCEKTFPRLGYLKHHVQSHAEHLPFKCEYCSKLFKHKRSRDRHKKLHTNERNYKCPHCEAAFSRSDHLKIHMKTHDIQKPFQCSMCNRGYNTAAALTSHMQKHKKNAAILAAGGNPNALNYSPRSTGSASASVSSNGSLQKRRYALALASDSSPSRMDFPKRSRSNHVGGTTTTATPTPLLRCSYCPKVTEFSSLEQLNAHLQSVHEQPQTQAVKTPVQEGEGFQLSCEYCTMKFGNIAGLFQHMRSTHMDRLSSPNSYYEHFNRLATAGTFSPRLALDLPKIKPDLGSPERESRPAEDDLPTDLSNNKRRPLTPNPQAQTPLAPPSAPPGVFFCNQCNAGLPDFESFRNHLKSHIAEGMQLVCPHCGMSLPEQSEFERHVVGHFLITGSEFNCSSSCGKSFAKSEDLQQHLLSEHVLTLLKCSLCSELCESRMAMQLHLACAHSQETKLLRCSACLELFRSDAEFHVHVKTRHQLGGHPTLGATSSAPTNPLQCMFCRAVCSSELEMHFHLAAHARQFRCPSCPETFHVEFLLDRHMQSQHGGVKDKEANSPNMGSLYVNALLPPLAAAAAAAAATNNNSSIIDYNVAFKGLFGGASGGAGSGGGGAQSGGAPPSANKFYSPLQVDTNALKAQTSPHPALMYGLSQRYLMEMYAAKSTSPSGNEGVGNSQPPAPQATAPPPPPNASTATFSCGMCERQDLRSEAELHSHRKLAHNLKTGVSLRCAYCAGNFKSRAELEQHMKSCHNSTGKHKCLICDEVFPSPAILAEHKLQHSKVGQSGKCSHCGQPLEDVAAFRAHLSEHGSDGASLPLACICCRQTLHSEFELSLHAKFHTKSSSSGGSLQEPVCALCLEPLPDATEGPAKLCDKCCRKHNLNGKRGKHSEPATSLPAPPSAFVENRCNLCKMILPHAQKLQEHLVEHTFAGTEQRGFNCYICSAVFTAPGGLLNHMGEHGAHSRPYDCNLCPEKFFFRAELEHHQRGHELRPQARPPAAKVEVPSIRNTSPGQSPVRSPTIVKQELYETDTVESAGVEDEPENHPDEEEYIEVEQMPHETRPSGIGSQLERSTSSA
